This is an account of results in PMC10848957.

In this assay the target is FakA_M, central zinc finger domain of Streptococcus suis FakA (Streptococcus suis serotype 2, strain 05ZYH33). Nature of the assay: cross-linking.

For the substance “FakA_M, central zinc finger domain of Streptococcus suis FakA (domain or fragment)”, the stoichiometry N is 2.

The stoichiometry N is the number of molecules, sites or subunits per partner or assembly.
